The text below walks through data of patent publication US20120190612A1, “METHODS OF TREATMENT” (CRC FOR ASTHMA AND AIRWAYS LTD., priority 2009, published 2012).

One data set relates to outer nodule cells (LAM). Kind of data set: Tube formation of LAM outer nodule cells. It is filed as cell-based. The following applies: 5 hrs. The method, then: (§1) To assess formation of tubular structures, 48 well plates were coated with 130 μL Matrigel® (BD Bioscience), which was solidified at 37° C. over 45 min. 2×10^4 HMVEC-LLy cells in complete EBM-2 (500 μL) were seeded per well and allowed to attach for 30 min, before lamstatin, tumstatin, CP17 or vehicle was added to the wells. Photos were taken with a Kodak Digital Camera every 2 hrs. Tube formation peaked at 24 hrs, at which time tubular structures were further analysed to determine length (in pixels) and number of tubes per high power field (HPF) area (px^2). The HPF was divided in nine regions of equal size and tubes per region were counted. Mean and SEM were calculated and plotted.
The inventors then analysed tube formation in LAM nodule cells and found only the outer nodule cells responded with pseudo-tube formation. Assay for tube formation was performed as described above in Example 2. Photos were taken at 2, 3, 4, 5 and 24 hrs after seeding. Lamstatin was added directly after seeding to inhibit prior tube formation. Tube formation peaked at 5 hrs and after 24 hrs no tubular structures were observed (both treated and untreated) (data not shown).

The test system of data set [1] is human primary lymphatic endothelial cells (HMVEC-LLy cells). The data set is described as follows: MTT cell viability assay, lymphatic endothelial cells. Type of data set: cell-based. On the procedure: To determine the function of lamstatin, human primary lymphatic endothelial cells (HMVEC-LLy cells) were exposed to various concentrations of lamstatin and an MTT assay was performed. As a comparison, commercially available tumstatin was used. Specifically, to assess cell viability 4×10^3 HMVEC-LLy cells were seeded per well in 100 μl complete EBM-2 media (with bullet kit, Lonza) and incubated for 2 hrs at 37° C., 5% CO2. After this period lamstatin, tumstatin and respective vehicles (1 nM EDTA, pH 3.0) were prepared in complete EBM-2 as serial dilutions in a separate plate and added. […] After 6 h of further incubation cells were lysed overnight with 10% SDS/0.01 M HCl and measured the following day in a plate reader at 570 nm.
The MTT assay was performed as described above.

In data set [2] the test system is HMVEC-LLy cells. Kind of data set: Tube formation on Matrigel. It is filed as cell-based, human. The settings on record: 24 hrs, n=2. The method, then: as §1
In data set [3] the test system is lymphatic endothelial cells.
Protocol: The MTT assay was performed as described above. […] To differentiate between antiproliferative and cytotoxic effects, cells were counted 72 hrs after treatment with various concentrations of lamstatin.
Data set [4] relates to HMVEC-LLy cells. Kind of data set: Real-time impedance (xCellgenix) cell attachment and proliferation. It is filed as cell-based, human. The method, then: HMVEC-LLy cells were treated with lamstatin and cell attachment and proliferation were measured in realtime using the xCellgenix system (Roche). This system measures a cell index factor, representing impedance mediated by cells. Gold electrodes on the well bottom measure this impedance and the more cells attach to the bottom the higher the impedance (cell index). This measurement allows for detecting early events after treatment such as detachment (e.g. through cell death) or inhibition of proliferation and reduction of cell number.
A Xcellgenix gold coated microtiter plate was seeded with 5×10^3 cells (HMVEC-LLy) per well and incubated in 100 μL complete EBM-2 for 24 hrs prior to treatment. In fresh media, serial dilutions of lamstatin or vehicle (1 nM EDTA, pH 3.0) were prepared. Cell culture supernatant was removed and replaced by 100 μL fresh serially diluted lamstatin. The plate was locked into the Xcellgenix recorder and a signal of impedance recorded at 5 min intervals for 6 hrs, and subsequently every 60 min.

In another data set the test system is epithelial cells (A549). The data set is described as follows: MTT cell viability assay, epithelial cells. Type of data set: cell-based. The settings on record: increasing concentrations, 72 hrs. On the technique in general: Formazan colour is commonly taken as a measure of viable cells.

B1: lamstatin: NC1 domain of the α5 chain of collagen type IV; human amino acid sequence SEQ ID NO:1; recombinant (protein, listed as Homo sapiens)
chain: GFLITRHSQTTDAPQCPQGTLQVYEGFSLLYVQGNKRAHGQDLGTAGSCLRRFSTMPFMFCNINNVCNFASRNDYSYWLSTPEPMPMSMQPLKGQSIQPFISRCAVCEAPAVVIAVHSQTIQIPHCPQGWDSLWIGYSFMMHTSAGAEGSGQALASPGSCLEEFRSAPFIECHGRGTCNYYANSYSFWLATVDVSDMFSKPQSETLKAGDLRTRISRCQVCMKRT
Take B1: in the data set on outer nodule cells (LAM), the tube length entry is reported as “significantly inhibited”. Also, the “tube number (tubes per square pixel)” value in the data set with outer nodule cells (LAM) was “significantly inhibited”. Also, the “cell viability (MTT)” value was “reduced cell viability” in data set [1] (24 hrs, data not shown); “decreased cell viability” in data set [1] (increasing concentrations, 72 hrs); “only lymphatic endothelial cells responded” in the data set on epithelial cells (A549). Moreover, the “numbers of tube-like structures formed” value in the data set with HMVEC-LLy cells [2] is “reduce in a concentration related manner”. For the same molecule, the “viable cells (trypan blue exclusion)” value in data set [3] is recorded as “no cytotoxic effect”. Also, the cell count entry in data set [3] (10 μg/mL, 72 hrs after treatment, data not shown) is on record as “anti-proliferative effect was observed”. Besides, in the data set with HMVEC-LLy cells [4] (10 μg/mL), the “time required to reach a threshold cell index of 1, compared with vehicle control” value was “double”. Also, the cell attachment entry in the data set with HMVEC-LLy cells [4] (after 55 min of treatment, various concentrations) is given as “reduction in cell attachment”.
